Reference: patent US20240182596A1 (TUBULIS, published 2024)

Experiments:
[1] = biological target: T1, human NaPi2b on NaPi2b-positive cell lines OVCAR-3 and HCC-78 (human, UniProt O95436 1-690); assay: flow cytometry on HCC-78 cells, one-site fit
T1 construct: Endogenous protein
T1 sequence: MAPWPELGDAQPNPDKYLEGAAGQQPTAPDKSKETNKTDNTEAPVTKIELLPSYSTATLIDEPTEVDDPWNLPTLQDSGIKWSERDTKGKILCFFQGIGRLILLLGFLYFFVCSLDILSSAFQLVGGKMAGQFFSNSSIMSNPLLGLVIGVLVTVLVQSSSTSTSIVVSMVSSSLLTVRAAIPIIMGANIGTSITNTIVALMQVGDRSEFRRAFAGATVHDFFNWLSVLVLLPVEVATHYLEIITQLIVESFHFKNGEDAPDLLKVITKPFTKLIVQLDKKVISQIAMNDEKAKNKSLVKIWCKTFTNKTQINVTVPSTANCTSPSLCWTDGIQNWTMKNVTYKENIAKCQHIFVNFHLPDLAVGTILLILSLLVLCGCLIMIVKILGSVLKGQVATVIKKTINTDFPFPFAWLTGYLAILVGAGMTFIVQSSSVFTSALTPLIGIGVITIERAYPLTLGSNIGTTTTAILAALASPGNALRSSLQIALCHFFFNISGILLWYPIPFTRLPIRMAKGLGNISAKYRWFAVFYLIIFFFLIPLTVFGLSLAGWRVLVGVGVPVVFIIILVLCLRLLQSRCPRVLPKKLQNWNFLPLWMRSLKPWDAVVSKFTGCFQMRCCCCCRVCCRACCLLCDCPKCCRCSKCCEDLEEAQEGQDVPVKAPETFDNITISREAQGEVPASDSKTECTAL

[2] = biological target: T1, human NaPi2b on NaPi2b-positive cell …; assay: flow cytometry on OVCAR-3 cells, one-site fit
[3] = biological target: T2, purified recombinant human Napi2b antigen consisting of Napi2b-extracellular-loop2 expressed as … (human, UniProt O95436 234-362, limits assumed); assay: ELISA, coated Napi2b-extracellular-loop2-Fc-6-His, apparent KD from one-site fit
T2 construct: Expressed in Expi-HEK293 cells; also called immobilized human NaPi2B; not shown: Fc part; 6-His tag
T2 sequence: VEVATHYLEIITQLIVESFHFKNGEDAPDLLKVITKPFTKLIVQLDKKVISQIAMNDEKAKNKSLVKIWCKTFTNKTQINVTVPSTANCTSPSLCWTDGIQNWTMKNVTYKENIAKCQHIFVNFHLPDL

[4] = biological target: T3, recombinant human FcγRI (FcγR-SmBiT, Lumit assay) (human, UniProt P12314 16-292); assay: Lumit FcγRI Binding Immunoassay (Promega), competition with Tracer-LgBiT for FcγRI-SmBiT, falling luminescence means binding, n=1
T3 construct: Kit reagent (Promega); also called FcγRI (CD64); not shown: SmBiT label of the kit
T3 sequence (P12314 16-292): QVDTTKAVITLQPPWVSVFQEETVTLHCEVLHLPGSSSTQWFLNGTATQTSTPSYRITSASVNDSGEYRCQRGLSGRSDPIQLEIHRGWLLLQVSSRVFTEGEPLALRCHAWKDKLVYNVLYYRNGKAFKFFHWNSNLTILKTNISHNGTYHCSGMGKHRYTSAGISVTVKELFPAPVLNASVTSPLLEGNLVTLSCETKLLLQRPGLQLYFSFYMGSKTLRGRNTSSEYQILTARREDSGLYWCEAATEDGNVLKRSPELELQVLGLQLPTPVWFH

[5] = biological target: T4, human Napi2a-mCherry on HEK293 cells (human, UniProt Q06495 1-639); assay: flow cytometry on HEK293 cells expressing human Napi2a-mCherry (panel Napi2a-HEK293), MFI ratio to the non-specific binding control
T4 construct: whole, on cells; also called Napi2a (SLC34A1); not shown: mCherry fusion
T4 sequence (looked up): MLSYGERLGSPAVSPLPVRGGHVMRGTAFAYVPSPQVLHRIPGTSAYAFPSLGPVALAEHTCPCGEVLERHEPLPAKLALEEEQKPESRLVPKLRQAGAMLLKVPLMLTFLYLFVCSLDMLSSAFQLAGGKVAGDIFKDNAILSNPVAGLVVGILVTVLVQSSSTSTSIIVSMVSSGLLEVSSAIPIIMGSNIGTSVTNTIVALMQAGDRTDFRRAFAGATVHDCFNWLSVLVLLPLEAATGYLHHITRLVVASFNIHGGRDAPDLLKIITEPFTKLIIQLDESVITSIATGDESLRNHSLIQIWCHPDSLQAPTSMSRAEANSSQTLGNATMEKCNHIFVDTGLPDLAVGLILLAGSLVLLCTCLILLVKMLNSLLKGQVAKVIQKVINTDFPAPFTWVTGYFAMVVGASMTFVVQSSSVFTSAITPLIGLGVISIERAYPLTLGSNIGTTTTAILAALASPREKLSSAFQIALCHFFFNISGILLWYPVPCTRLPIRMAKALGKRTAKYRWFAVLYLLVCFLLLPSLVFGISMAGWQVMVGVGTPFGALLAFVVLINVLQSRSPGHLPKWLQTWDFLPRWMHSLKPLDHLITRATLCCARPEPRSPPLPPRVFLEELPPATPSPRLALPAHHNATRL

FcγRIIa (CD32) (H131) = biological target: T5, FcγRIIa (CD32) (H131) (Fused to the SmBiT luciferase fragment (Promega Lumit reagent), not carried in the letters); assay: Lumit FcγRIIa (H131) Binding Immunoassay (Promega), left panel FcγRIIa (CD32) (H131), competition with Tracer-LgBiT for FcγR-SmBiT, n=1
T5 construct: m20 joins both polymorphic variants; also called H131 variant of m20; not shown: SmBiT tag (and any linker or purification tag) of Promega's FcγR-SmBiT fusion
T5 chain: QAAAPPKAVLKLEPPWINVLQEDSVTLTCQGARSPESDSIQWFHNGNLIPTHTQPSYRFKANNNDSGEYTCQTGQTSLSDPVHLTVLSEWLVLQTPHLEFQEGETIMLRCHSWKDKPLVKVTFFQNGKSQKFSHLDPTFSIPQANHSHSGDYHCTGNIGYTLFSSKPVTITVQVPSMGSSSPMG

[6] = biological target: T1, human NaPi2b on NaPi2b-positive cell …; assay: flow cytometry on NaPi2b-positive OVCAR-3 cells, Alexa-dye-labeled anti-human IgG H+L secondary antibody, MFI ratio normalized to the non-specific binding control
FcγRIIIa (CD16) (F158) = biological target: T6, FcγRIIIa (CD16) (F158) (Homo sapiens, UniProt P08637); assay: Lumit FcγRIIIa (F158) Binding Immunoassay (Promega), right panel FcγRIIIa (CD16) (F158), competition with Tracer-LgBiT for FcγR-SmBiT, falling luminescence means binding, n=1
T6 construct: m21 joins both polymorphic variants; also called F158 variant of m21
T6 sequence (P08637 17-208 limits assumed): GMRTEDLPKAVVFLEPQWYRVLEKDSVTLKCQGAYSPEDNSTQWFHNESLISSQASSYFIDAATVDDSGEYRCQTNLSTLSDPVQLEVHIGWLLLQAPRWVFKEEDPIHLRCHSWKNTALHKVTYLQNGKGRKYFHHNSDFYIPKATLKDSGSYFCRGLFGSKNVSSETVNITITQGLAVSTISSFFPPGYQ

[7] = biological target: T7, human Napi2b-mCherry on HEK293 cells (human, UniProt O95436 1-690); assay: flow cytometry on HEK293 cells stably expressing human full-length NaPi2b-mCherry, Alexa-dye anti-human IgG H+L secondary antibody, MFI ratio, one-site specific binding fit; the Kd table prints no unit, the concentration axis is in nM; second experiment on human cells, run beside the rat cells of FIG. 3D
T7 construct: also called Napi2b (SLC34A2); HEK293 cells overexpressing Napi2b
T7 sequence: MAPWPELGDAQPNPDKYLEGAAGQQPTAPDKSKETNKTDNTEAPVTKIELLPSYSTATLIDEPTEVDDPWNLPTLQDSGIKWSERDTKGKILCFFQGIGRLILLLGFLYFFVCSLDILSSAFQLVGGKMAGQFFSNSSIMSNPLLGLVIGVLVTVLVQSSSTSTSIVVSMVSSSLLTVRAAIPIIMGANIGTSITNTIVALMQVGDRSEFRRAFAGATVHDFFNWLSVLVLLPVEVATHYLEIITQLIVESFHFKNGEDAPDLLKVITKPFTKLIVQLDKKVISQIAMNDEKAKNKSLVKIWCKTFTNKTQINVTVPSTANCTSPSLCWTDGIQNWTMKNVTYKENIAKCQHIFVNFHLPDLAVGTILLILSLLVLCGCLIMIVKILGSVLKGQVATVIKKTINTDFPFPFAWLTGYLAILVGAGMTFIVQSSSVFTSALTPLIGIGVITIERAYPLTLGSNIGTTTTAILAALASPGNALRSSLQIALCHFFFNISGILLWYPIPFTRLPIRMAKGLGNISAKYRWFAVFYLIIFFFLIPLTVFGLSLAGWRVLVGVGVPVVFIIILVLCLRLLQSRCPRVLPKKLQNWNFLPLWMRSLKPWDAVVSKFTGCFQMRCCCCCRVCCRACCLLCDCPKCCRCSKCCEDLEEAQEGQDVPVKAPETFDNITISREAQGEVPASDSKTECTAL

- Kd [1]: 0.42 µg/mL
- Kd [2]: 0.44 µg/mL
- Kd [3]: 0.0106 µg/mL
- binding result [4]: binds
- binding result [5]: no binding (tested: 200 nM)
- binding result (FcγRIIa (CD32) (H131)): no binding
- EC50 (read off the curve) [6]: ~0.5 µg/mL
- binding result (FcγRIIIa (CD16) (F158)): binds
- Kd [7]: 0.609 nM
B1: AV25 mAb, LALA-silenced (AV25 HC-LALA) (antibody, human IgG1, kappa, L234A L235A)
heavy: not shown
light: DIQMTQSPSSLSASVGDRVTITCSASQDIGNFLNWYQQKPGKTVKVLIYYASSLYSGVPSRFSGSGSGTDYTLTISSLQPEDFATYYCQQYSKLPLTFGQGTKLELKRTVAAPSVFIFPPSDEQLKSGTASVVCLLNNFYPREAKVQWKVDNALQSGNSQESVTEQDSKDSTYSLSSTLTLSKADYEKHKVYACEVTHQGLSSPVTKSFNRGEC
notes: also called unmodified AV25 mAb
